Experimental data from the RNAGym collection of RNA variant scans (doi:10.1021/acssynbio.7b00057).

B1: Pistol ribozyme (parent)
chain: GGGUCGUUGUUCCAUAAUCGCGUGGAUAUGGCACGCAAGUUUCUACCGGGCACCGUAAAUGUCCGACUGGAGCCGUUCGGGCGGCUAUAAACAGACCUCAGGCCCGAAGCGUGGCGGCACCUGCCGCCGGUGGUAAAAAAGAUCGGAAGAGCACACGUCU

Variants of: B1
Assay: aptazyme ON/OFF ratio, guanine; higher = stronger switching; co-transcriptional cleavage with and without guanine

| Variant | aptazyme ON/OFF ratio |
| --- | --- |
| GGGUCGUGGACCGAUAAUCGCGUGGAUAUGGCACGCAAGUUUCUACCGGGCACCGUAAAUGUCCGACUGGAGCCGUUCGGGCGGCUAUAAACAGACCUCAGGCCCGAAGCGUGGCGGCACCUGCCGCCGGUGGUAAAAAAGAUCGGAAGAGCACACGUCU [U8G U10A U11C C13G] | 1.02 |
| GGGUCGUGGACCAAUAAUCGCGUGGAUAUGGCACGCAAGUUUCUACCGGGCACCGUAAAUGUCCGACUGGAGCCGUUCGGGCGGCUAUAAACAGACCUCAGGCCCGAAGCGUGGCGGCACCUGCCGCCGGUGGUAAAAAAGAUCGGAAGAGCACACGUCU [U8G U10A U11C C13A] | 1.03 |
| GGGUCGUGGACCUAUAAUCGCGUGGAUAUGGCACGCAAGUUUCUACCGGGCACCGUAAAUGUCCGACUGGAGCCGUUCGGGCGGCUAUAAACAGACCUCAGGCCCGAAGCGUGGCGGCACCUGCCGCCGGUGGUAAAAAAGAUCGGAAGAGCACACGUCU [U8G U10A U11C C13U] | 1.03 |
| GGGUCGUGGCUAUAUAAUCGCGUGGAUAUGGCACGCAAGUUUCUACCGGGCACCGUAAAUGUCCGACUGGAGCCGUUCGGGCGGCUAUAAACAGACCUCAGGCCCGAAGCGUGGCGGCACCUGCCGCCGGUGGUAAAAAAGAUCGGAAGAGCACACGUCU [U8G U10C C12A C13U] | 1.14 |
| GGGUCGUGGCUAGAUAAUCGCGUGGAUAUGGCACGCAAGUUUCUACCGGGCACCGUAAAUGUCCGACUGGAGCCGUUCGGGCGGCUAUAAACAGACCUCAGGCCCGAAGCGUGGCGGCACCUGCCGCCGGUGGUAAAAAAGAUCGGAAGAGCACACGUCU [U8G U10C C12A C13G] | 1.07 |
| GGGUCGUGGCUAAAUAAUCGCGUGGAUAUGGCACGCAAGUUUCUACCGGGCACCGUAAAUGUCCGACUGGAGCCGUUCGGGCGGCUAUAAACAGACCUCAGGCCCGAAGCGUGGCGGCACCUGCCGCCGGUGGUAAAAAAGAUCGGAAGAGCACACGUCU [U8G U10C C12A C13A] | 1.09 |
| GGGUCGUGGCUUAAUAAUCGCGUGGAUAUGGCACGCAAGUUUCUACCGGGCACCGUAAAUGUCCGACUGGAGCCGUUCGGGCGGCUAUAAACAGACCUCAGGCCCGAAGCGUGGCGGCACCUGCCGCCGGUGGUAAAAAAGAUCGGAAGAGCACACGUCU [U8G U10C C12U C13A] | 1.05 |
| GGGUCGUGGCUUUAUAAUCGCGUGGAUAUGGCACGCAAGUUUCUACCGGGCACCGUAAAUGUCCGACUGGAGCCGUUCGGGCGGCUAUAAACAGACCUCAGGCCCGAAGCGUGGCGGCACCUGCCGCCGGUGGUAAAAAAGAUCGGAAGAGCACACGUCU [U8G U10C C12U C13U] | 1.17 |
| GGGUCGUGGCUUGAUAAUCGCGUGGAUAUGGCACGCAAGUUUCUACCGGGCACCGUAAAUGUCCGACUGGAGCCGUUCGGGCGGCUAUAAACAGACCUCAGGCCCGAAGCGUGGCGGCACCUGCCGCCGGUGGUAAAAAAGAUCGGAAGAGCACACGUCU [U8G U10C C12U C13G] | 1.07 |
| GGGUCGUGGCUCAAUAAUCGCGUGGAUAUGGCACGCAAGUUUCUACCGGGCACCGUAAAUGUCCGACUGGAGCCGUUCGGGCGGCUAUAAACAGACCUCAGGCCCGAAGCGUGGCGGCACCUGCCGCCGGUGGUAAAAAAGAUCGGAAGAGCACACGUCU [U8G U10C C13A] | 1.05 |
| GGGUCGUGGCUCGAUAAUCGCGUGGAUAUGGCACGCAAGUUUCUACCGGGCACCGUAAAUGUCCGACUGGAGCCGUUCGGGCGGCUAUAAACAGACCUCAGGCCCGAAGCGUGGCGGCACCUGCCGCCGGUGGUAAAAAAGAUCGGAAGAGCACACGUCU [U8G U10C C13G] | 1.04 |
| GGGUCGUGGCUCUAUAAUCGCGUGGAUAUGGCACGCAAGUUUCUACCGGGCACCGUAAAUGUCCGACUGGAGCCGUUCGGGCGGCUAUAAACAGACCUCAGGCCCGAAGCGUGGCGGCACCUGCCGCCGGUGGUAAAAAAGAUCGGAAGAGCACACGUCU [U8G U10C C13U] | 1.15 |
| GGGUCGUGGAGUAAUAAUCGCGUGGAUAUGGCACGCAAGUUUCUACCGGGCACCGUAAAUGUCCGACUGGAGCCGUUCGGGCGGCUAUAAACAGACCUCAGGCCCGAAGCGUGGCGGCACCUGCCGCCGGUGGUAAAAAAGAUCGGAAGAGCACACGUCU [U8G U10A U11G C12U C13A] | 1.15 |
| GGGUCGUGGAGUUAUAAUCGCGUGGAUAUGGCACGCAAGUUUCUACCGGGCACCGUAAAUGUCCGACUGGAGCCGUUCGGGCGGCUAUAAACAGACCUCAGGCCCGAAGCGUGGCGGCACCUGCCGCCGGUGGUAAAAAAGAUCGGAAGAGCACACGUCU [U8G U10A U11G C12U C13U] | 1.12 |
| GGGUCGUGGAGUGAUAAUCGCGUGGAUAUGGCACGCAAGUUUCUACCGGGCACCGUAAAUGUCCGACUGGAGCCGUUCGGGCGGCUAUAAACAGACCUCAGGCCCGAAGCGUGGCGGCACCUGCCGCCGGUGGUAAAAAAGAUCGGAAGAGCACACGUCU [U8G U10A U11G C12U C13G] | 1.22 |
| GGGUCGUGGAGCCAUAAUCGCGUGGAUAUGGCACGCAAGUUUCUACCGGGCACCGUAAAUGUCCGACUGGAGCCGUUCGGGCGGCUAUAAACAGACCUCAGGCCCGAAGCGUGGCGGCACCUGCCGCCGGUGGUAAAAAAGAUCGGAAGAGCACACGUCU [U8G U10A U11G] | 1.34 |
| GGGUCGUGGCUCCAUAAUCGCGUGGAUAUGGCACGCAAGUUUCUACCGGGCACCGUAAAUGUCCGACUGGAGCCGUUCGGGCGGCUAUAAACAGACCUCAGGCCCGAAGCGUGGCGGCACCUGCCGCCGGUGGUAAAAAAGAUCGGAAGAGCACACGUCU [U8G U10C] | 3.87 |
| GGGUCGUGGAGAAAUAAUCGCGUGGAUAUGGCACGCAAGUUUCUACCGGGCACCGUAAAUGUCCGACUGGAGCCGUUCGGGCGGCUAUAAACAGACCUCAGGCCCGAAGCGUGGCGGCACCUGCCGCCGGUGGUAAAAAAGAUCGGAAGAGCACACGUCU [U8G U10A U11G C12A C13A] | 1.11 |

| Variant | aptazyme ON/OFF ratio |
| --- | --- |
| GGGUCGUGGAGAGAUAAUCGCGUGGAUAUGGCACGCAAGUUUCUACCGGGCACCGUAAAUGUCCGACUGGAGCCGUUCGGGCGGCUAUAAACAGACCUCAGGCCCGAAGCGUGGCGGCACCUGCCGCCGGUGGUAAAAAAGAUCGGAAGAGCACACGUCU [U8G U10A U11G C12A C13G] | 1.12 |
| GGGUCGUGGAGAUAUAAUCGCGUGGAUAUGGCACGCAAGUUUCUACCGGGCACCGUAAAUGUCCGACUGGAGCCGUUCGGGCGGCUAUAAACAGACCUCAGGCCCGAAGCGUGGCGGCACCUGCCGCCGGUGGUAAAAAAGAUCGGAAGAGCACACGUCU [U8G U10A U11G C12A C13U] | 1.12 |
| GGGUCGUGGCACCAUAAUCGCGUGGAUAUGGCACGCAAGUUUCUACCGGGCACCGUAAAUGUCCGACUGGAGCCGUUCGGGCGGCUAUAAACAGACCUCAGGCCCGAAGCGUGGCGGCACCUGCCGCCGGUGGUAAAAAAGAUCGGAAGAGCACACGUCU [U8G U10C U11A] | 1.89 |
| GGGUCGUGGCUGGAUAAUCGCGUGGAUAUGGCACGCAAGUUUCUACCGGGCACCGUAAAUGUCCGACUGGAGCCGUUCGGGCGGCUAUAAACAGACCUCAGGCCCGAAGCGUGGCGGCACCUGCCGCCGGUGGUAAAAAAGAUCGGAAGAGCACACGUCU [U8G U10C C12G C13G] | 1.14 |
| GGGUCGUGGCUGAAUAAUCGCGUGGAUAUGGCACGCAAGUUUCUACCGGGCACCGUAAAUGUCCGACUGGAGCCGUUCGGGCGGCUAUAAACAGACCUCAGGCCCGAAGCGUGGCGGCACCUGCCGCCGGUGGUAAAAAAGAUCGGAAGAGCACACGUCU [U8G U10C C12G C13A] | 1.13 |
| GGGUCGUGGCUGUAUAAUCGCGUGGAUAUGGCACGCAAGUUUCUACCGGGCACCGUAAAUGUCCGACUGGAGCCGUUCGGGCGGCUAUAAACAGACCUCAGGCCCGAAGCGUGGCGGCACCUGCCGCCGGUGGUAAAAAAGAUCGGAAGAGCACACGUCU [U8G U10C C12G C13U] | 1.27 |
| GGGUCGUGGCUACAUAAUCGCGUGGAUAUGGCACGCAAGUUUCUACCGGGCACCGUAAAUGUCCGACUGGAGCCGUUCGGGCGGCUAUAAACAGACCUCAGGCCCGAAGCGUGGCGGCACCUGCCGCCGGUGGUAAAAAAGAUCGGAAGAGCACACGUCU [U8G U10C C12A] | 1.34 |
| GGGUCGUGGCUGCAUAAUCGCGUGGAUAUGGCACGCAAGUUUCUACCGGGCACCGUAAAUGUCCGACUGGAGCCGUUCGGGCGGCUAUAAACAGACCUCAGGCCCGAAGCGUGGCGGCACCUGCCGCCGGUGGUAAAAAAGAUCGGAAGAGCACACGUCU [U8G U10C C12G] | 1.49 |
| GGGUCGUGGCUUCAUAAUCGCGUGGAUAUGGCACGCAAGUUUCUACCGGGCACCGUAAAUGUCCGACUGGAGCCGUUCGGGCGGCUAUAAACAGACCUCAGGCCCGAAGCGUGGCGGCACCUGCCGCCGGUGGUAAAAAAGAUCGGAAGAGCACACGUCU [U8G U10C C12U] | 3.67 |
| GGGUCGUGGAGCAAUAAUCGCGUGGAUAUGGCACGCAAGUUUCUACCGGGCACCGUAAAUGUCCGACUGGAGCCGUUCGGGCGGCUAUAAACAGACCUCAGGCCCGAAGCGUGGCGGCACCUGCCGCCGGUGGUAAAAAAGAUCGGAAGAGCACACGUCU [U8G U10A U11G C13A] | 1.08 |
| GGGUCGUGGAGCGAUAAUCGCGUGGAUAUGGCACGCAAGUUUCUACCGGGCACCGUAAAUGUCCGACUGGAGCCGUUCGGGCGGCUAUAAACAGACCUCAGGCCCGAAGCGUGGCGGCACCUGCCGCCGGUGGUAAAAAAGAUCGGAAGAGCACACGUCU [U8G U10A U11G C13G] | 1.04 |
| GGGUCGUGGAGCUAUAAUCGCGUGGAUAUGGCACGCAAGUUUCUACCGGGCACCGUAAAUGUCCGACUGGAGCCGUUCGGGCGGCUAUAAACAGACCUCAGGCCCGAAGCGUGGCGGCACCUGCCGCCGGUGGUAAAAAAGAUCGGAAGAGCACACGUCU [U8G U10A U11G C13U] | 1.04 |
| GGGUCGUGGAGACAUAAUCGCGUGGAUAUGGCACGCAAGUUUCUACCGGGCACCGUAAAUGUCCGACUGGAGCCGUUCGGGCGGCUAUAAACAGACCUCAGGCCCGAAGCGUGGCGGCACCUGCCGCCGGUGGUAAAAAAGAUCGGAAGAGCACACGUCU [U8G U10A U11G C12A] | 1.12 |
| GGGUCGUGGAGUCAUAAUCGCGUGGAUAUGGCACGCAAGUUUCUACCGGGCACCGUAAAUGUCCGACUGGAGCCGUUCGGGCGGCUAUAAACAGACCUCAGGCCCGAAGCGUGGCGGCACCUGCCGCCGGUGGUAAAAAAGAUCGGAAGAGCACACGUCU [U8G U10A U11G C12U] | 1.23 |
| GGGUCGUGGAGGCAUAAUCGCGUGGAUAUGGCACGCAAGUUUCUACCGGGCACCGUAAAUGUCCGACUGGAGCCGUUCGGGCGGCUAUAAACAGACCUCAGGCCCGAAGCGUGGCGGCACCUGCCGCCGGUGGUAAAAAAGAUCGGAAGAGCACACGUCU [U8G U10A U11G C12G] | 1.2 |
| GGGUCGUGGAGGUAUAAUCGCGUGGAUAUGGCACGCAAGUUUCUACCGGGCACCGUAAAUGUCCGACUGGAGCCGUUCGGGCGGCUAUAAACAGACCUCAGGCCCGAAGCGUGGCGGCACCUGCCGCCGGUGGUAAAAAAGAUCGGAAGAGCACACGUCU [U8G U10A U11G C12G C13U] | 1.5 |
| GGGUCGUGGAGGAAUAAUCGCGUGGAUAUGGCACGCAAGUUUCUACCGGGCACCGUAAAUGUCCGACUGGAGCCGUUCGGGCGGCUAUAAACAGACCUCAGGCCCGAAGCGUGGCGGCACCUGCCGCCGGUGGUAAAAAAGAUCGGAAGAGCACACGUCU [U8G U10A U11G C12G C13A] | 1.31 |
| GGGUCGUGGAGGGAUAAUCGCGUGGAUAUGGCACGCAAGUUUCUACCGGGCACCGUAAAUGUCCGACUGGAGCCGUUCGGGCGGCUAUAAACAGACCUCAGGCCCGAAGCGUGGCGGCACCUGCCGCCGGUGGUAAAAAAGAUCGGAAGAGCACACGUCU [U8G U10A U11G C12G C13G] | 1.14 |
